Laboratory results reported in the supplement of paper PMC10567573.
± gives the standard deviation.

Assay: protein stability index of a GFP-peptide fusion (GPS, HEK-293T) (PSI 1-6); higher = more stable
Settings: c terminus: a fixed tail appended
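Further: 24-mer peptide tiles fused after GFP, lentivirally expressed, FACS-sorted into six equal bins by GFP/DsRed ratio, decoded by Illumina sequencing, PSI is the read-weighted mean bin number.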

Row | Sequence | protein stability index (treatment: DMSO) | protein stability index (treatment: MLN4924 1 uM, 8 h)
1 | SLSSIATCVYIAEIAPQHRRGLLV [SLC2A12] | 2.6 ± 0.81 | 2.6 ± 0.52
2 | GYGRDRDYSDHPSGGSYRDSYESY [RBMX] | 3.91 ± 0.2 | 3.462 ± 0.032
3 | RERKKNWGGQEDREPAGRWKEGRP [PBXIP1] | 4.49 ± 0.24 | 4.73 ± 0.13
4 | NRPLSLKDQQTFARSVGLKWRKVG [TRADD] | 3.03 ± 0.15 | 3.17 ± 0.11
5 | ELIDNLKEAQYIRTELVEQAFRAI [PCMTD2] | 2.54 ± 0.32 | 2.29 ± 0.44
6 | GNTAVSVLMLLVALLFTGIAVLGI [SCAMP3] | 1.99 ± 0.37 | 1.96 ± 0.34
7 | HQTQLLYQASAMMVESRYALLIVD [RAD51] | 3.17 ± 0.74 | 2.8 ± 0.66
8 | FLDLMETIDKQREEMAKSSRASAA [LRRC45] | 3.71 ± 0.11 | 4.08 ± 0.3
9 | LGEDNQPETQLFWDKEPWFWHDTL [TLE6] | 3.37 ± 0.35 | 3.32 ± 0.27
10 | FPVAEQDKLLKHMIIEHKIVIADV [ZNF277] | 2.25 ± 0.18 | 2.4 ± 0.34
11 | KTIEELRDKILTATIENNRVILEI [KRT13] | 2.57 ± 0.46 | 2.71 ± 0.64
12 | TPLHVAAFLGDAEIIELLILSGAR [ANKRD44] | 2.57 ± 0.7 | 2.52 ± 0.22
13 | LVENIIDIYKQECSSRPLQKGSHP [TRIM63] | 2.36 ± 0.17 | 2.56 ± 0.13
14 | LRVMTTNIRSARGNNPNGREAKMI [ELOA2] | 3.25 ± 0.18 | 3.49 ± 0.26
15 | ESITSAGRDDLESFQLEISGFLKE [FAM98B] | 3.9 ± 0.26 | 4.1 ± 0.28
16 | GDLGDPFHLGLEDILMEEEEGVVG [TFE3] | 5.33 ± 0.34 | 5.3 ± 0.2
17 | ADNMEFEQCIKLWLHALHLRQKGN [FEM1B] | 2.56 ± 0.15 | 2.72 ± 0.2
18 | SILRAPAYPLELQGQPDPAPRPGP [MOSPD3] | 4.53 ± 0.28 | 4.39 ± 0.43
19 | KLVVHDCPVWDIFDSDWYTSRNLI [RHOBTB3] | 2.62 ± 0.43 | 2.66 ± 0.18
20 | WGGQEDREPAGRWKEGRPRVEESG [PBXIP1] | 4.79 ± 0.21 | 5.05 ± 0.099
21 | YYHRGHVDPANDTFDIDPMVVTDC [MCOLN1] | 3.63 ± 0.21 | 3.78 ± 0.14
22 | VLKKLAQSRRTALATSPITVGDLG [YJU2B] | 2.614 ± 0.015 | 2.58 ± 0.24

Row | Sequence | protein stability index (treatment: DMSO) | protein stability index (treatment: MLN4924 1 uM, 8 h)
23 | AVIRWMHSFNFVLSANLHGGAVVA [CPN1] | 2.95 ± 0.71 | 2.88 ± 0.19
24 | SCGGDGGIVVWNMDVERQETPEWL [WDFY2] | 3.82 ± 0.34 | 3.79 ± 0.18
25 | VEKFIYENHPDVFSDSSMDHFQKF [MYOZ1] | 2.94 ± 0.2 | 3.09 ± 0.19
26 | QTFLDERTPRLMPDKESMYYPRVQ [GDAP1] | 3.43 ± 0.32 | 3.41 ± 0.31
27 | TISFGSVSPGGVKLEISTKEVPVV [EPB41L3] | 2.9 ± 0.21 | 3.31 ± 0.18
28 | VCSQCGKVLEEGGFFEEKGAIFCP [PDLIM7] | 4.88 ± 0.22 | 4.81 ± 0.38
29 | DGIDRWIKEIDEHAPGVPKILVGN [RAB40B] | 3.68 ± 0.28 | 3.85 ± 0.33
30 | FYRLYQDLETHRLPCTSRCPRPCR [SCNN1D] | 2.8 ± 0.26 | 2.99 ± 0.35
31 | YQRPQDSEDMWGDEDFTFGAYQPT [FBF1] | 3.2 ± 0.55 | 3.76 ± 0.48
32 | LALGRERLGEIHTLPLPASLKAYL [SPSB1] | 2.24 ± 0.38 | 2.15 ± 0.19
33 | LYSLTLYGLRGPHKADSIQGTART [TNXB] | 2.11 ± 0.21 | 2.48 ± 0.3
34 | QASSERLGLDNRLFGHPGLDMELG [ADAMTSL2] | 3.87 ± 0.12 | 4.02 ± 0.5
35 | DEIENLLDSDHRELIGDYSKAFLL [CDC25B] | 3.55 ± 0.36 | 3.41 ± 0.53
36 | HYYLMDDTVEIREVHERNDGIDPF [EFHC1] | 3.92 ± 0.18 | 3.86 ± 0.32
37 | PPDKGEEQVNFCESSNDFGPYEGG [ZBTB22] | 5.53 ± 0.098 | 5.41 ± 0.26
38 | TIIPILQHLKYKEHPEALSCLLLQ [INTS3] | 2.35 ± 0.15 | 2.25 ± 0.14
39 | VCINLPPPLTRQIAVKTLGIGKNV [GFOD1] | 2.23 ± 0.27 | 2.05 ± 0.19
40 | DERVLENVEHYQELKKMVQQSDLG [ALG2] | 4.95 ± 0.38 | 4.8 ± 0.28
41 | KADTLKERYQKIGDTKRATPIEVL [CSNK1G3] | 3.88 ± 0.18 | 4.01 ± 0.32
42 | DTDVDMEGLRRRRGREAGPPQPMV [PBXIP1] | 4.75 ± 0.36 | 5.04 ± 0.11
43 | LQAELAAQEALREKAAALERQLKV [LRRC45] | 4.18 ± 0.094 | 4.25 ± 0.29
44 | LEKCKTLVSQSNDLSSLRAKYPHD [SPACA9] | 4.29 ± 0.16 | 4.4 ± 0.19

Row | Sequence | protein stability index (treatment: DMSO) | protein stability index (treatment: MLN4924 1 uM, 8 h)
45 | ISGLRFETQLKTLAQFPNTLLGNP [KCNA1] | 2.46 ± 0.23 | 2.41 ± 0.11
46 | GLQAQIASSGLTVEVDAPKSQDLA [KRT18] | 4.77 ± 0.35 | 4.94 ± 0.47
47 | TTISYLPHAPPFAGGHPAQLGLGR [JUNB] | 2.72 ± 0.2 | 2.61 ± 0.26
48 | ELSEKNFQLNQDKMNFSTLRNIQG [POMP] | 2.69 ± 0.59 | 3.27 ± 0.44
49 | LHYKWIPVEDSHTADISSHFQEAI [DUSP5] | 2.17 ± 0.23 | 2.25 ± 0.52
50 | ALCATDVKFISNPPSMVAAGSVVA [CCND1] | 2.86 ± 0.28 | 3 ± 0.23
51 | IIKQIPVEQMTKEERQAAQNECQV [NEK8] | 4.93 ± 0.19 | 4.75 ± 0.24
52 | VFLPIVVLIFKSILFLPCLRKKIL [STEAP1] | 2.98 ± 0.78 | 2.98 ± 0.59
53 | AEREALQARLRDVSRREGALGWAP [ZBED3] | 4.04 ± 0.13 | 3.92 ± 0.17
54 | FNEMSAQGLRPRTVSSPIPYTPSP [CCDC6] | 4.02 ± 0.3 | 4.12 ± 0.23
55 | FTVGSVLGQILVSVAGWSLFSLNV [SLC19A2] | 3.28 ± 0.33 | 3.1 ± 0.63
56 | QEPMVPAKLGTQAEKDRRLKKKHQ [PPFIA4] | 5.32 ± 0.42 | 5.56 ± 0.11
57 | EAGAPGEEDIQGPTKADTEKWAEG [CHGB] | 5.64 ± 0.29 | 5.59 ± 0.32
58 | NVHATTATGDTALTYACENGHTDV [ANKRD17] | 4.82 ± 0.33 | 4.88 ± 0.19
59 | WVFGTSFLPFLLCAVLLSAVQAQA [FADS1] | 3.09 ± 0.6 | 2.51 ± 0.12
60 | EDGIHTLTCALMLLNTDLHGHNIG [PSD2] | 2.78 ± 0.5 | 2.75 ± 0.36
61 | AKVKGEKLDKKLKKMEQNKTAATR [ATF4] | 4.88 ± 0.39 | 4.85 ± 0.16
62 | EAGSAGHVEVARLLLENGAGINTH [ANKRD17] | 4.11 ± 0.36 | 4.25 ± 0.26
63 | YPSLQAMGWFNNEVGSMKIQSGAW [CRYBA1] | 1.99 ± 0.41 | 2.45 ± 0.17
64 | FMAYEQIKRLVGSDQETLRIHERL [SLC25A25] | 3.08 ± 0.26 | 2.97 ± 0.42
65 | GVPQIWEKIHEMVKKNSAKSMGLK [ACSBG2] | 2.09 ± 0.21 | 2.53 ± 0.046
